Data: paper PMC10247859, “Replisome-cohesin interactions provided by the Tof1-Csm3 and Mrc1 cohesion establishment factors” (Chromosoma, 2023)

T1: Tof1 (S. cerevisiae (budding yeast), UniProt P53840 1-1238)
T1 construct: Tof1, budding yeast; the Tof1 chain of m2; Stood in the cross-linking sample as a chain of the Tof1-Csm3 complex; source: purified as part of Tof1-Csm3, as previously described (Yeeles et al. 2017)
T1 sequence (looked up): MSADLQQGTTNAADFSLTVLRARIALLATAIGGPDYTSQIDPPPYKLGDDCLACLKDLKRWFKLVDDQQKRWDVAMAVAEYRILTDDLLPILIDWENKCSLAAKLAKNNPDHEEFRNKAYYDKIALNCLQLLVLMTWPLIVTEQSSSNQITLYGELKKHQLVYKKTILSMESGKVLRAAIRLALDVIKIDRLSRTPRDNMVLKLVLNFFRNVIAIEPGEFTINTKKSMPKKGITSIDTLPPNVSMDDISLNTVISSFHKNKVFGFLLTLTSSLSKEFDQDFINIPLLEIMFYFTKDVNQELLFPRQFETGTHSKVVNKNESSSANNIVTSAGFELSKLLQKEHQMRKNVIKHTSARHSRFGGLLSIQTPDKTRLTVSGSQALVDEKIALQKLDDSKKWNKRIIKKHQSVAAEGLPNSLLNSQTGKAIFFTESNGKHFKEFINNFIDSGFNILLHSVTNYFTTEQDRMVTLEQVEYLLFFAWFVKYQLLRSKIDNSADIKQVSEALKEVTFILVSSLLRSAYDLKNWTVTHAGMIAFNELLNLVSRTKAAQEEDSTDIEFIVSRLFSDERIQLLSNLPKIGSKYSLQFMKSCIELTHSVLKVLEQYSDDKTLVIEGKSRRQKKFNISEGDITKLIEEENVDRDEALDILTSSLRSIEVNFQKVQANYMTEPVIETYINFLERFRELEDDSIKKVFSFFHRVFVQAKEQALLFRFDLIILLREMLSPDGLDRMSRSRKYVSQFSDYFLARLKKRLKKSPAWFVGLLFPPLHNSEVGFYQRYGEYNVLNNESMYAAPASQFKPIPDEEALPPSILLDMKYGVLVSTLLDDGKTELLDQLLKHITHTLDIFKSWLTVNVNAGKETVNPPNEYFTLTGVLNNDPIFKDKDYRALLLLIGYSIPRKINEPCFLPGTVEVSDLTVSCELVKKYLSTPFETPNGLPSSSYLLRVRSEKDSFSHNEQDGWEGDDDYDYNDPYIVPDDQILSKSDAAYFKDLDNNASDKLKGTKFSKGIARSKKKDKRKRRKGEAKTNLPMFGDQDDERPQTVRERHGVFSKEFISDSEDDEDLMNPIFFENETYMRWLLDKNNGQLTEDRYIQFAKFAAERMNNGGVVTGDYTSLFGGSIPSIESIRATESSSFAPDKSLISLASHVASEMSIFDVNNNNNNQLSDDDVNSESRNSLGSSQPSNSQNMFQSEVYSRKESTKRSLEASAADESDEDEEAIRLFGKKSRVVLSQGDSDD

B1: Chl1 (natural protein, S. cerevisiae (budding yeast), UniProt P22516 1-861, looked up)
chain: MDKKEYSETFYHPYKPYDIQVQLMETVYRVLSEGKKIAILESPTGTGKTLSLICATMTWLRMNKADIFTRMETNIKTNEDDSENLSDDEPDWVIDTYRKSVLQEKVDLLNDYEKHLNEINTTSCKQLKTMCDLDKEHGRYKSVDPLRKKRKGARHLDVSLEEQDFIPRPYESDSENNDTSKSTRGGRISDKDYKLSELNSQIITLLDKIDGKVSRDPNNGDRFDVTNQNPVKIYYASRTYSQLGQFTSQLRLPSFPSSFRDKVPDEKVKYLPLASKKQLCINPKVMKWKTLEAINDACADLRHSKEGCIFYQNTNEWRHCPDTLALRDMIFSEIQDIEDLVPLGKSLGICPYYASREALPIAEVVTLPYQYLLSESTRSSLQINLENSIVIIDEAHNLIETINSIYSSQISLEDLKNCHKGIVTYFNKFKSRLNPGNRVNLLKLNSLLMTLIQFIVKNFKKIGQEIDPNDMFTGSNIDTLNIHKLLRYIKVSKIAYKIDTYNQALKEEESSKNENPIKETHKKSVSSQPLLFKVSQFLYCLTNLTSEGQFFFEKNYSIKYMLLEPSKPFESILNQAKCVVLAGGTMEPMSEFLSNLLPEVPSEDITTLSCNHVIPKENLQTYITNQPELEFTFEKRMSPSLVNNHLFQFFVDLSKAVPKKGGIVAFFPSYQYLAHVIQCWKQNDRFATLNNVRKIFYEAKDGDDILSGYSDSVAEGRGSLLLAIVGGKLSEGINFQDDLCRAVVMVGLPFPNIFSGELIVKRKHLAAKIMKSGGTEEEASRATKEFMENICMKAVNQSVGRAIRHANDYANIYLLDVRYNRPNFRKKLSRWVQDSINSEHTTHQVISSTRKFFSMRSLNSR
notes: Chl1, budding yeast; codon-optimized ectopic copy; also called Flag-tagged Chl1; Chl1 helicase
B2: Scc1 (natural protein, S. cerevisiae (budding yeast), UniProt Q12158 1-566, looked up)
chain: MVTENPQRLTVLRLATNKGPLAQIWLASNMSNIPRGSVIQTHIAESAKEIAKASGCDDESGDNEYITLRTSGELLQGIVRVYSKQATFLLTDIKDTLTKISMLFKTSQKMTSTVNRLNTVTRVHQLMLEDAVTEREVLVTPGLEFLDDTTIPVGLMAQENSMERKVQGAAPWDTSLEVGRRFSPDEDFEHNNLSSMNLDFDIEEGPITSKSWEEGTRQSSRNFDTHENYIQDDDFPLDDAGTIGWDLGITEKNDQNNDDDDNSVEQGRRLGESIMSEEPTDFGFDLDIEKEAPAGNIDTITDAMTESQPKQTGTRRNSKLLNTKSIQIDEETENSESIASSNTYKEERSNNLLTPQPTNFTTKRLWSEITESMSYLPDPILKNFLSYESLKKRKIHNGREGSIEEPELNVSLNLTDDVISNAGTNDNSFNELTDNMSDFVPIDAGLNEAPFPEENIIDAKTRNEQTTIQTEKVRPTPGEVASKAIVQMAKILRKELSEEKEVIFTDVLKSQANTEPENITKREASRGFFDILSLATEGCIGLSQTEAFGNIKIDAKPALFERFINA
notes: Scc1, budding yeast; the Scc1 chain of m1; Stood in the cross-linking sample as a chain of cohesin; source: purified as part of cohesin, as previously described (Minamino et al. 2018)
B3: Smc3 (natural protein, S. cerevisiae (budding yeast), UniProt P47037 1-1230, looked up)
chain: MYIKRVIIKGFKTYRNETIIDNFSPHQNVIIGSNGSGKSNFFAAIRFVLSDDYSNLKREERQGLIHQGSGGSVMSASVEIVFHDPDHSMILPSGVLSRGDDEVTIRRTVGLKKDDYQLNDRNVTKGDIVRMLETAGFSMNNPYNIVPQGKIVALTNAKDKERLQLLEDVVGAKSFEVKLKASLKKMEETEQKKIQINKEMGELNSKLSEMEQERKELEKYNELERNRKIYQFTLYDRELNEVINQMERLDGDYNNTVYSSEQYIQELDKREDMIDQVSKKLSSIEASLKIKNATDLQQAKLRESEISQKLTNVNVKIKDVQQQIESNEEQRNLDSATLKEIKSIIEQRKQKLSKILPRYQELTKEEAMYKLQLASLQQKQRDLILKKGEYARFKSKDERDTWIHSEIEELKSSIQNLNELESQLQMDRTSLRKQYSAIDEEIEELIDSINGPDTKGQLEDFDSELIHLKQKLSESLDTRKELWRKEQKLQTVLETLLSDVNQNQRNVNETMSRSLANGIINVKEITEKLKISPESVFGTLGELIKVNDKYKTCAEVIGGNSLFHIVVDTEETATLIMNELYRMKGGRVTFIPLNRLSLDSDVKFPSNTTTQIQFTPLIKKIKYEPRFEKAVKHVFGKTIVVKDLGQGLKLAKKHKLNAITLDGDRADKRGVLTGGYLDQHKRTRLESLKNLNESRSQHKKILEELDFVRNELNDIDTKIDQVNGNIRKVSNDRESVLTNIEVYRTSLNTKKNEKLILEESLNAIILKLEKLNTNRTFAQEKLNTFENDLLQEFDSELSKEEKERLESLTKEISAAHNKLNITSDALEGITTTIDSLNAELESKLIPQENDLESKMSEVGDAFIFGLQDELKELQLEKESVEKQHENAVLELGTVQREIESLIAEETNNKKLLEKANNQQRLLLKKLDNFQKSVEKTMIKKTTLVTRREELQQRIREIGLLPEDALVNDFSDITSDQLLQRLNDMNTEISGLKNVNKRAFENFKKFNERRKDLAERASELDESKDSIQDLIVKLKQQKVNAVDSTFQKVSENFEAVFERLVPRGTAKLIIHRKNDNANDHDESIDVDMDAESNESQNGKDSEIMYTGVSISVSFNSKQNEQLHVEQLSGGQKTVCAIALILAIQMVDPASFYLFDEIDAALDKQYRTAVATLLKELSKNAQFICTTFRTDMLQVADKFFRVKYENKISTVIEVNREEAIGFIRGSNKFAEV
notes: Smc3, budding yeast; the Smc3 chain of m1; Stood in the cross-linking sample as a chain of cohesin; source: purified as part of cohesin, as previously described (Minamino et al. 2018)

Key:
Conditions in all cases: both partners purified
[1] = target: T2, cohesin tetramer complex (Smc1-Smc3-Scc1-Scc3) (S. cerevisiae (budding yeast), UniProt P32908 1-1225; P47037 1-1230; Q12158 1-566; P40541 1-1150); assay: pull-down; cohesin tetramer (200-600 nM) held on Protein A dynabeads by anti-Pk antibody (Pk tag on Smc1); 200 nM prey, 30 °C, 5 min; 25 mM HEPES-KOH pH 7.6, 100 mM potassium glutamate, 10 mM magnesium acetate, 0.12% NP-40; SDS elution, Coomassie staining
T2 construct: Smc1, cohesin subunit, budding yeast; Smc3, cohesin subunit, budding yeast; Scc1, cohesin subunit, budding yeast; Scc3, cohesin subunit, budding yeast; also called cohesin complex; source: purified as previously described (Minamino et al. 2018): IgG agarose, 3C protease cleavage; copies: + + +

[2] = target: T3, Tof1-Csm3 complex (S. cerevisiae (budding yeast), UniProt P53840 1-1238; Q04659 1-317); assay: pull-down; Flag-tagged Chl1 (200-600 nM) held on anti-Flag M2 magnetic beads; Tof1-Csm3 as prey; interaction buffer
T3 construct: Tof1, budding yeast; Csm3, budding yeast; Held on calmodulin dynabeads when used as bait; source: purified as previously described (Yeeles et al. 2017)

[3] = target: T1, Tof1; assay: cross-linking; CLMS with sulfo-SDA; cohesin, Tof1-Csm3 and Chl1 with or without Mrc1 at 300-350 nM, 30 °C 5 min, cross-linker 2 h at 4 °C, UV 365 nm; LC-MS/MS, 1% FDR at residue-pair level; two samples merged
[4] = target: B1; assay: as above

T2 sequence (P40541 whole entry, chain 4 of 2, one chain of several): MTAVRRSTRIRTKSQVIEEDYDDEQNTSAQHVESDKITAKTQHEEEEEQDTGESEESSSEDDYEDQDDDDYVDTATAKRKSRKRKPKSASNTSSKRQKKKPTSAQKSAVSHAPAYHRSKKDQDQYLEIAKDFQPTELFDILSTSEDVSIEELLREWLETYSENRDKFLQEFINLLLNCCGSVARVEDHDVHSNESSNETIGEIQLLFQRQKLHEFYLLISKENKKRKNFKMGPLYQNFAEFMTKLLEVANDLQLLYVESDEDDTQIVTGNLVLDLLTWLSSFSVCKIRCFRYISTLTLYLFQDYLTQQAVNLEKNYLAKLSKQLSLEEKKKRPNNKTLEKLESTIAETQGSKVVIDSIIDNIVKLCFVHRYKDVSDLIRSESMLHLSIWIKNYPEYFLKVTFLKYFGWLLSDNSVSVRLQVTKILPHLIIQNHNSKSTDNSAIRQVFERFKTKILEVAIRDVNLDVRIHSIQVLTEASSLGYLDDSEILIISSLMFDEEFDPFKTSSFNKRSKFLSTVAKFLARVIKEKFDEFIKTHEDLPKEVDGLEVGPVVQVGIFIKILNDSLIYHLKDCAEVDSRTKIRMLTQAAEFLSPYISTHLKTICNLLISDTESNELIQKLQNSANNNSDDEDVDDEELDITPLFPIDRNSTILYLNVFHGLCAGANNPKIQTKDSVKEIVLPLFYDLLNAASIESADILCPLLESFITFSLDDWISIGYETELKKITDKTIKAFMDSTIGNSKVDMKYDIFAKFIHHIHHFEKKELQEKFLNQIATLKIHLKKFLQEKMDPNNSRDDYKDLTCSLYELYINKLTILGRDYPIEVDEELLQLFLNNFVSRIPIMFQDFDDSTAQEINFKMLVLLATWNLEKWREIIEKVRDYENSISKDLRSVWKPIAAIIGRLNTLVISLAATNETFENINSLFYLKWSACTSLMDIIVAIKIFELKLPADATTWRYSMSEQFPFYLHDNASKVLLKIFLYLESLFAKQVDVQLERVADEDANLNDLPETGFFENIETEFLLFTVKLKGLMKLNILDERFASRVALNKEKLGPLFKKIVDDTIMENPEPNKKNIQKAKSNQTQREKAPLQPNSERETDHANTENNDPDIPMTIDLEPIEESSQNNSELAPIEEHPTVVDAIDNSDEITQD

B1: binds [1]; binds [2].

B2: binds [3]; binds [4].

B3: binds [3].
